Data: patent publication US20240076389A1 (NATIONAL RESEARCH COUNCIL OF CANADA, published 2024)

T1: human AXL expressed on the cell surface of tumor cell lines (human, UniProt P30530 26-894)
T1 construct: whole, on cells; also called cell surface-expressed AXL; cell-based AXL
T1 sequence (looked up): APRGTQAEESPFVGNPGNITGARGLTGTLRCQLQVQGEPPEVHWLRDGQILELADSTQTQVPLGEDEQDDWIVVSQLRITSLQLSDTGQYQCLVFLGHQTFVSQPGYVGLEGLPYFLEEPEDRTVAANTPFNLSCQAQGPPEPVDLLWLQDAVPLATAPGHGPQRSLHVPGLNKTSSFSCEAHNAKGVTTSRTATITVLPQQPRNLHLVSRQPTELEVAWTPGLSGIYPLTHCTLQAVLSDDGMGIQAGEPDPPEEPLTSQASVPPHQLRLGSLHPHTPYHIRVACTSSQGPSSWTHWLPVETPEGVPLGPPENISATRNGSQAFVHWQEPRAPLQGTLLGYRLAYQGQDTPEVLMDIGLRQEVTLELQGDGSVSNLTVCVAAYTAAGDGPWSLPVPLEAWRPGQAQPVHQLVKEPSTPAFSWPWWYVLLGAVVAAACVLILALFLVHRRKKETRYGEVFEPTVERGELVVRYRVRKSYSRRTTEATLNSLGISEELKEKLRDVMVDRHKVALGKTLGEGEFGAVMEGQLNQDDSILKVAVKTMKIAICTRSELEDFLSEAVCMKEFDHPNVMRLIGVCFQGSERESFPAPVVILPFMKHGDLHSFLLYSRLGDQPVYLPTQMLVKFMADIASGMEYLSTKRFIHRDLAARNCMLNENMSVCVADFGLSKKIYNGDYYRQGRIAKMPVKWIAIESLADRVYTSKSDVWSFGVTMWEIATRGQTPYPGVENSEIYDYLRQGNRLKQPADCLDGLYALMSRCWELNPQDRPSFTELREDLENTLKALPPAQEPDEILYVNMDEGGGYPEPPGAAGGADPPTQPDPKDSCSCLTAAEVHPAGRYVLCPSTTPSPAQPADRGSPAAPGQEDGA

T2: AXL fragment # 4 (AXL amino acids 219-335, FN III-1)
T2 chain: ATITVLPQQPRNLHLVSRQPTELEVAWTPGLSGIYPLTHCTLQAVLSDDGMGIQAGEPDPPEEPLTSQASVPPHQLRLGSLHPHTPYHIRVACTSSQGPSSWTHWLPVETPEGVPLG

T3: AXL fragment # 5 (AXL amino acids 321-450, FN III-2+)
T3 chain: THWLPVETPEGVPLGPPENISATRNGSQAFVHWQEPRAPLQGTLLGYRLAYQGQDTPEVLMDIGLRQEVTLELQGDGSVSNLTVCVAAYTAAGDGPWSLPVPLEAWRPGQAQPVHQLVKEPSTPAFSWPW

T4: AXL fragment # 8 (AXL amino acids 219-450, FN III-1+FN III-2+)
T4 construct: not shown: Yeast display carrier and tags (Aga2p, HA, MYC and any linkers)
T4 chain: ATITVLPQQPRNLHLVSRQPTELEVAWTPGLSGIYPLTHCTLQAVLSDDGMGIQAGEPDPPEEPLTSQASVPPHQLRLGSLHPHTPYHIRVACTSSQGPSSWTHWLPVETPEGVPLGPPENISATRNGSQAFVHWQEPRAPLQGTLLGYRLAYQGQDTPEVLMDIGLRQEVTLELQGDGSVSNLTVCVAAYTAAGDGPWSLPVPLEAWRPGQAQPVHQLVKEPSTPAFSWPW

T5: AXL fragment # 1 (AXL amino acids 135-226, IgL2)
T5 chain: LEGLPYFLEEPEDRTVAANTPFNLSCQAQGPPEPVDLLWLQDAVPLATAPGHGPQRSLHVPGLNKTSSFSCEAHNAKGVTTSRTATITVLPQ

T6: AXL fragment # 7 (AXL amino acids 135-335, IgL2+FN III-1)
T6 chain: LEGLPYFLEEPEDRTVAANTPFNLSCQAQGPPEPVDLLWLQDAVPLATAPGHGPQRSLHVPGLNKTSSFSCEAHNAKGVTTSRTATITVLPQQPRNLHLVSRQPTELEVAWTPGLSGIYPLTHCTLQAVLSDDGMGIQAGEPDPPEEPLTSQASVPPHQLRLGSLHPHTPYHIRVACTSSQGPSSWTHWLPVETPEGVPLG


Key:
[1] = target: T1, human AXL expressed on the cell surface …; assay: flow cytometry on H292 cells, apparent cell binding constant
Experimental: (§1) Detection of antibody binding to surface AXL by flow cytometry. Prior to analysis, cells were plated such that they were not more than 80% confluent on the day of analysis. Cells were washed in PBS and harvested by the addition of cell dissociation buffer (Sigma). A cell suspension containing 2.5×10⁵ cells (in 500 μl corresponding cell culture media) was incubated with various concentrations (0.01-10 nM) of anti-AXL antibodies for 2 h at 4° C. (to prevent internalization). Following one wash with cell culture media, primary antibody was incubated with 2 μg DYLIGHT™ 488 conjugated AffiniPure goat anti-mouse IgG Alexa 488 secondary antibody (Jackson ImmunoResearch) in 100 μl of media for 1 h at 4° C. Prior to analysis, cell pellets were re-suspended in 300-500 μl media and filtered through a 50 μm nylon mesh filter to remove cell aggregates. Flow cytometry analyses were performed on 10,000 viable cells gated on forward scattering, side scattering parameters and propidium iodide dye exclusion using a BD LSRII flow Cytometer (Becton-Dickinson Biosciences, CA, USA) and a standard filter set using BD FACSDiva™ acquisition software, according to manufacturer's instructions.
(§2) Specific detection of antibody binding was calculated as the mean fluorescent intensity of binding to each primary antibody after background level subtraction of the mean fluorescent intensity of binding in the absence of primary antibody (but containing detection antibody). Binding parameters Bmax, (maximum fluorescence signal at receptor saturation), and KD (apparent cell binding constant) were then determined using a One site—Specific binding with Hill slope model in GraphPad Prism v 6.0.

[2] = target: T1, human AXL expressed on the cell surface …; assay: flow cytometry on H292 cells, one site-specific binding with Hill slope
Experimental: as §1, §2

[3] = target: T2, AXL fragment # 4 (AXL amino acids …); assay: yeast surface display of hAXL fragments, whole yeast cell ELISA, signal normalised to anti-MYC
Description: (§3) Epitope mapping. […] The YSD vector (pPNL6) was from The Pacific Northwest National Laboratory, USA.

[4] = target: T3, AXL fragment # 5 (AXL amino acids …); assay: as above
Description: as §3

[5] = target: T4, AXL fragment # 8 (AXL amino acids …); assay: as above
Description: as §3

[6] = target: T5, AXL fragment # 1 (AXL amino acids …); assay: as above
Description: as §3

[7] = target: T6, AXL fragment # 7 (AXL amino acids …); assay: as above
Description: as §3

Binder | Kd [1] | Bmax [2] | binding result [3] | binding result [4] | binding result [5] | binding result [6] | binding result [7]
F107-10G1 (antibody, V domains shown, also called F107-10G1-3) VH: EVNLVESGGGVVKPGASLKLSCEASGFTFSNYGMSWVRQTSDKRLEWVASISGGGGRTYYLDNVKGRFIISRENAKNTLYLQMSSLKSEDTALFYCARGARASYFAMDYWGQGSSVTVSS VL: VIVMTQSHKFMSTSVGDRVSITCKASQDVTTAVAWYQQKPGQSPKLLIYWASTRHTGVPDRFTGSGSGTDYSLTISNVQTEDLAFYYCQQHFTTPLTFGAGTKLELK | 0.101 nM | 937 MFI | no binding | no binding | no binding | no binding | no binding
F107-8D12 (antibody, V domains shown, also called F107-8D12-2; mAb 8D12) VH: QVQLQQPGAELVKPGASVQLSCKASGYTFISFWINWVKQRPGQGLEWMGNIFPGSSSTNYNEKFKSKATLTVDKSSSTAYMQLSSLTSEDSAVYFCARDYYGGSPDYWGQGTTLTVSS VL: DIVMSQSPSSLAVSAGERVTMSCKSSQSLLNTRTRKNYLAWYQQKPGQSPKLLIYWASTRESGVPDRFTGSGSGTDFTLTISSVQAEDLAVYYCKQSYNLWTFGGGTKLEIK | 0.088 nM | 1310 MFI | no binding | no binding | no binding | no binding | no binding
F107-7H5 (antibody, V domains shown, also called F107-7H5-2; mAb 7H5) VH: QVQLQQPGAELVKPGASVKLSCKASGYTFTSYWINWVKQRPGQGLEWIGNIYPDSSSTNYNEKFKSKATLTVDKSSTTAYIQFSSLTSEDSAVYYCTRDTYGGSPDYWGQGTTLTVSS VL: DIVMSQSPSSLAVSAGEKVTMSCKSSQSLLNSRTRKIYLAWYQQKPGQSPKLLIYWASTRQSGVPDRFTGSGSGTDFTLTISSVQAEDLAVYYCKQSYNLWTFGGGTKLEIK | 0.104 nM | 1430 MFI | no binding | no binding | no binding | no binding | no binding

The next lines start with the values.

Kd [1] | Bmax [2] | binding result [3] | binding result [4] | binding result [5] | binding result [6] | binding result [7] | Binder
0.177 nM | 1150 MFI | no binding | no binding | no binding | – | – | F111-5E9 (antibody, V domains shown, also called F111-5E9-2; mAb 5E9) VH: QIQLVQSGPELKKPGETVKISCKASGYTFTKYGMNWVKQAPGKGLKWMGWINTYTGEPTYADDFKGRFAFSLETSASTAYLQINNLTTEDMVTYFCAKGGYYSNPIYPMDYWGQGTSVTVSS VL: DIQMTQTTSSLSASLGDRVTISCRASQDINNYLNWYQQKPDGTVKLLIYYISRLHSGVPSRFSGSGSGTDYSLTISNLELEDVATYFCQQGNTLPFTFGSGTKLEIK
1.23 nM | 1480 MFI | no binding | no binding | no binding | – | – | F111-3C8 (antibody, V domains shown, also called F111-3C8-2) VH: QVQLQQPGAELGKPGTSVKLSCKASGYTFTSYWMHWVKRVPGQGLEWIGNINPNSTSADYNEKFKRKATLTVDKSSSTAYMQLSTLTSEDSAVYYCTRPLMGPYWYFDVWGTGTTVTVSS VL: QIVLTQSPAIMSASPGEKVTISCSASSSVSYMYWYQQKPGSSPKPWIYRTSNLASGVPARFSGSGSGTSYSLTISSMEAEDAATYYCQQYHNYPPTFGGGTKLEIK
